± gives the uncertainty stated by the source.
Assay: self-splicing fitness, log relative to wild type (ln ratio); higher = more splicing; Tetrahymena group I intron in knt gene, E. coli kanamycin selection, DiMSum; sequences stand for … in CUCUCU…GGAGGGAAAAGUUAUCAGGCAUGCACCUGGUAGCUAGUCUUUAAACCAAUAGAUUGCAUCGGUUUAAAAGGCAAGACCGUCAAAUUGCGGGAAAGGGGUCAACAGCCGUUCAGUACCAAGUCUCAGGGGAAACUUUGAGAUGGCCUUGCAAAGGGUAUGGUAAUAAGCUGACGGACAUGGUCCUAACCACGCAGCCAAGUCCUAAGUCAACAGAUCUUCUGUUGAUAUGGAUGCAGUUCACAGACUAAAUGUCGGUCGGGGAAGAUGUAUUCUUCUCAUAAGAUAUAGUCGGACCUCUCCUUAAUGGGAGCUAGCGGAUGAAGUGAUGCAACACUGGAGCCGCUGGGAACUAAUUUGUAUGCGAAAGUAUAUUGAUUAGUUUUGGAGUACUCGUGGUCG
Procedure, shortened: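 DiMSum derived fitness as the error-weighted combination of fold changes across replicates, kanamycin versus no kanamycin, normalised to wild type. E. coli BL21(DE3) held the library, which randomised all eight P1ex-region intron nucleotides within the knt kanamycin-resistance gene on pET-22b(+). Six replicate transformations grew overnight at 37°C or 30°C on LB agar with or without 25 μg/mL kanamycin, also containing 100 μg/mL carbenicillin, 50 μM IPTG and 0.2% rhamnose, and pooled colonies were amplicon-sequenced on an Illumina HiSeq 2500.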

Sequence	self-splicing fitness (ln) (30 °C)	self-splicing fitness (ln) (37 °C)
AGUUAGCAAUAUUACGCACG	-1.42 ± 0.19	0.196 ± 0.22
AGUUAGCAAUAUUACGCCUU	-0.974 ± 0.23	-0.383 ± 0.33
AGUUAGCAAUAUUACGCGGA	-0.823 ± 0.29	-0.581 ± 0.14
AGUUAGCAAUAUUACGCUCA	-1.23 ± 0.16	-0.21 ± 0.15
AGUUAGCAAUAUUACGCUUC	-2.8 ± 0.18	
AGUUAGCAAUAUUACGGAAG	-3.57 ± 0.3	-3.07 ± 0.43
AGUUAGCAAUAUUACGGACU	-3.24 ± 0.28	-1.03 ± 0.25
AGUUAGCAAUAUUACGGAUA	-2 ± 0.31	-1.42 ± 0.25
AGUUAGCAAUAUUACGGAUG	-0.996 ± 0.11	-0.801 ± 0.15
AGUUAGCAAUAUUACGGCGC	-0.53 ± 0.22	0.14 ± 0.33
AGUUAGCAAUAUUACGUAAU	-2.56 ± 0.14	-1.47 ± 0.14
AGUUAGCAAUAUUACGUCCG	-1.32 ± 0.15	-0.0933 ± 0.19
AGUUAGCAAUAUUACGUCGG	-3.45 ± 0.23	-1.67 ± 0.16
AGUUAGCAAUAUUACGUCUC	-3.73 ± 0.37	-2.44 ± 0.36
AGUUAGCAAUAUUACGUGGA	-1.87 ± 0.13	-1.58 ± 0.12
AGUUAGCAAUAUUACGUUCA	-1.28 ± 0.15	-0.155 ± 0.16
AUAAAGCAAUAUUACGAAAC	-2.47 ± 0.19	-1.18 ± 0.32
AUAAAGCAAUAUUACGAAAU	-0.905 ± 0.067	-0.451 ± 0.098
AUAAAGCAAUAUUACGAACU	0.222 ± 0.095	0.227 ± 0.11
AUAAAGCAAUAUUACGAAGU	-1.82 ± 0.088	-1.01 ± 0.098
AUAAAGCAAUAUUACGACAG	-1.2 ± 0.1	-1.15 ± 0.12
AUAAAGCAAUAUUACGACCA	-0.122 ± 0.09	0.00323 ± 0.12

Sequence	self-splicing fitness (ln) (30 °C)	self-splicing fitness (ln) (37 °C)
AUAAAGCAAUAUUACGCAUA	-1.34 ± 0.088	-0.0324 ± 0.11
AUAAAGCAAUAUUACGCAUG	-0.888 ± 0.073	-0.405 ± 0.093
AUAAAGCAAUAUUACGCCAC	-1.94 ± 0.38	
AUAAAGCAAUAUUACGCCGU	0.151 ± 0.11	-0.694 ± 0.12
AUAAAGCAAUAUUACGCCUG	0.243 ± 0.077	-0.132 ± 0.09
AUAAAGCAAUAUUACGCGCC	-0.37 ± 0.13	-0.473 ± 0.2
AUAAAGCAAUAUUACGCUCC	-0.366 ± 0.16	-0.365 ± 0.24
AUAAAGCAAUAUUACGCUUA	-1.27 ± 0.1	0.137 ± 0.12
AUAAAGCAAUAUUACGGGCU	-0.992 ± 0.08	-0.621 ± 0.1
AUAAAGCAAUAUUACGUAUA	-1.91 ± 0.099	-0.351 ± 0.12
AUAAAGCAAUAUUACGUAUC	-3.77 ± 0.18	-2.02 ± 0.19
AUAAAGCAAUAUUACGUCAA	-1.54 ± 0.088	-0.873 ± 0.094
AUAAAGCAAUAUUACGUGGA	-3.9 ± 0.17	-1.38 ± 0.1
AUAAAGCAAUAUUACGUGGG	-2.92 ± 0.095	-3.02 ± 0.15
AUAAAGCAAUAUUACGUGUC	-3.44 ± 0.14	-3.4 ± 0.12
AUAAAGCAAUAUUACGUUAU	-0.793 ± 0.064	-0.4 ± 0.11
AUAAAGCAAUAUUACGUUGC	-3.81 ± 0.19	-3.29 ± 0.29
AUAAAGCAAUAUUACGUUUG	-2.84 ± 0.11	-1.79 ± 0.12
AUACAGCAAUAUUACGAAAA	-2.58 ± 0.26	-1.4 ± 0.18
AUACAGCAAUAUUACGAAAC		-3.1 ± 0.24
AUACAGCAAUAUUACGAAGA	-3.16 ± 0.2	-2.04 ± 0.17

Reference: the supplement of paper PMC7877785
